The text below walks through data of patent publication US20140363427A1.

Assay [1] concerns the target F protein of RSV B-1 (respiratory syncytial virus B-1) (UniProt O36634). Put plainly: cell-based or functional assay.
Assay [2] addresses F protein of RSV B-wash (strain 18537) (respiratory syncytial virus B, strain 18537) (UniProt P13843). Briefly: cell-based or functional assay.
Assay [3] addresses RSV F A2 mutant V278M (human RSV, A2 strain) (UniProt P03420). Briefly: mutant F in HEK 293 cells.
The target in assay [4] is RSV F A2 mutant F351S (human RSV, A2 strain) (UniProt P03420). Put plainly: mutant F in HEK 293 cells.
In assay [5] the target is native RSV F protein from the RSV A2 strain (Respiratory Syncytial Virus strain A2) (UniProt P03420). Put plainly: cell-based or functional assay.
Assay [6] concerns the target F protein of the parental RSV A2 strain (Example 11) (Respiratory Syncytial Virus strain A2) (UniProt P03420). Briefly: cell-based or functional assay.
For assay [7], the target named is F protein of the Motavizumab MARM (K272E) (Respiratory Syncytial Virus strain A2, escape mutant) (UniProt P03420). Briefly: cell-based or functional assay.
In assay [8] the target is F protein of the 58C5 MARM (N63K, M115K, E295G) (Respiratory Syncytial Virus strain A2, escape mutant) (UniProt P03420). Briefly: cell-based or functional assay.
The target of assay [9] is RSV F A2 mutant E82G (human RSV, A2 strain) (UniProt P03420). Put plainly: mutant F in HEK 293 cells.
The target in assay [10] is RSV F A2 mutant S403A (human RSV, A2 strain) (UniProt P03420). Put plainly: mutant F in HEK 293 cells.
Assay [11] addresses RSV F A2 mutant N371D (human RSV, A2 strain) (UniProt P03420). Put plainly: mutant F in HEK 293 cells.
Assay [12] deals with RSV F A2 mutant E463A (human RSV, A2 strain) (UniProt P03420). Briefly: mutant F in HEK 293 cells.
The target of assay [13] is RSV F A2 mutant Y86C (human RSV, A2 strain) (UniProt P03420). Briefly: mutant F in HEK 293 cells.

On to Fab 58c5, for which, in [1], the Average Plaque Count, RSV B-1, Fab at 0.003 µg/ml (12.3 at 0 µg/ml) was 11.7; the Average Plaque Count, RSV B-1, Fab at 0.016 µg/ml (12.3 at 0 µg/ml) was 8.7; the Average Plaque Count, RSV B-1, Fab at 0.08 µg/ml (12.3 at 0 µg/ml) turned out to be 4.7; the Average Plaque Count, RSV B-1, Fab at 0.4 µg/ml (12.3 at 0 µg/ml) was 0. Besides, in assay [1], the Average Plaque Count, RSV B-1, Fab at 2 µg/ml (12.3 at 0 µg/ml) stood at 0; the Average Plaque Count, RSV B-1, Fab at 10 µg/ml (12.3 at 0 µg/ml) came to 0.3; the ED50, plaque reduction, RSV B-1 was determined as 0.84 nM; the ED50, plaque reduction, RSV B-1 (mass concentration) was 0.042 mg/L. Further, in [2], the Average Plaque Count, RSV B/wash, Fab at 0.003 µg/ml (26.3 at 0 µg/ml) stood at 23.3; the Average Plaque Count, RSV B/wash, Fab at 0.016 µg/ml (26.3 at 0 µg/ml) amounted to 16.3; the Average Plaque Count, RSV B/wash, Fab at 0.08 µg/ml (26.3 at 0 µg/ml) came out at 5; the Average Plaque Count, RSV B/wash, Fab at 0.4 µg/ml (26.3 at 0 µg/ml) is 0. In [2], the Average Plaque Count, RSV B/wash, Fab at 2 µg/ml (26.3 at 0 µg/ml) came out at 0.7; the Average Plaque Count, RSV B/wash, Fab at 10 µg/ml (26.3 at 0 µg/ml) came out at 1.3; the ED50, plaque reduction, RSV B/wash came out at 0.5 nM; the ED50, plaque reduction, RSV B/wash (mass concentration) turned out to be 0.025 mg/L.
In assay [3], IgG form of 58c5 (antibody) gave an immunoluminescence Mean of 99.8, an immunoluminescence S1 of 122, an immunoluminescence S2 of 97.6 and an immunoluminescence S3 of 79.6. In assay [4], the immunoluminescence Mean turned out to be 7.4, the immunoluminescence S1 was determined as 2.9, the immunoluminescence S3 was determined as 6.1 and the immunoluminescence S4 was found to be 14.7. Also, the ED50, plaque reduction, RSV B-1 in [1] worked out at 0.28 nM. Moreover, in assay [5], the ED50, plaque reduction, RSV A2 amounted to 0.133 nM. Besides, the ED50, plaque reduction, RSV A2 parental in [6] was determined as 0.115 nM. Further, the ED50, plaque reduction, Motavizumab MARM in [7] came to 0.173 nM. In [2], this substance yielded an ED50, plaque reduction, RSV B/wash of 0.193 nM. The ED50, plaque reduction, 58C5 MARM in assay [8] was above 66.7 nM.
For Motavizumab IgG (antibody), the immunoluminescence Mean came to 42.1 in [9]; 28 in [10]; 26.9 in assay [11]; 101 in [12]; 24.8 in assay [13].
